Data published in the nanobody polyreactivity screen of Harvey et al. (2022).

Test: yeast display, Sf9 membrane polyspecificity reagent, FACS + sequencing; frameworks hold sequencing errors
How it was run: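 Synthetic nanobody libraries on Saccharomyces cerevisiae BJ5465 were galactose-induced for 36–48 hours, stained 1 hour at 4 °C with 10% biotinylated, detergent-solubilized Sf9 membrane reagent and enriched on streptavidin microbeads. FACS then separated cells into low and high (top ~1%) gates by anti-HA (expression) and streptavidin (reagent binding) fluorescence. Genes were colony-PCR amplified, MiSeq 2 × 250 sequenced and CDR-length filtered. A clone's polyreactivity label is that of its gate of origin.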

Sequence | polyreactivity (PSR sort gate)
QVQHVESGGGLVQAGGSLRLSCAASGFTFWRYAMGWYRQEPGKERELVAGISSGGSTNYADSVKGRFTISRDNAKNTVYLQMNSLKPEDTAVYYCAADNSVGSYDYWGQGSQVTVSS | low polyreactivity
QVQHVESGGGLVQAGGSLRLSCAASGFTSIMYAMGWYRQAPGKERDLVASISISDGSTYYADSVKGRFTISRDNAKNTVYLQMNILKPEDTAVYYCAADVYVWYTYSYDYWGQGTKVTVSS | low polyreactivity
QVQHVESGGGLVQAGGSLRLSCAASGIIFFKNAMGWYRQAPGKERELVAAISSTDTRTYYADSVKGRFTISRDNAKNTVYLQMNSLKPEDTAVYYCAASRRGGGLDYWGQGTQVTVSS | high polyreactivity
QVQHVESGGGLVQAGGSLRLSCAASGIIFKLYAMGWYRQAPGKEREFVATITKTGGRTYYADSVKGRFTISRDNAKNTVYLQMNSLKPEDTAVYYCAARRVNGKMYYWGQGTQVTVSS | high polyreactivity
QVQHVESGGGLVQAGGSLRLSCAASGIIFYSYTMGWYRQAPGKDRELVAAISRNGGGTYYADSVKGRFTSSRDIAKNTGYLQMNSLKPEHTAVYYCAAGWRFGRYSGDYWGQGTQVTVSS | high polyreactivity
QVQHVESGGGLVQAGGSLRLSCAASGIILGSYAMGWYRQAPGKEMELVAAIRWSRGRTYYADSVKGRFTISRDNAKNTVYLQMNSLKPEDSAVYYCAAANSRRGYDYWGQGTQVTVSS | high polyreactivity
QVQHVESGGGLVQAGGSLRLSCAASGITFGRNTMGWYRQAPGKERELVAAIDSGGNTYADSVKGRFTISRDNAKITVYLQMIRQKPEDTAVDSCAVDGGEFSSYGYWGQGTQVTVSS | low polyreactivity
QVQHVESGGGLVQAGGSLRLSCAASGITFKPNAMGWSRHAPGKERELVAAIDSGGSTNYAYSVKGRFTISLDNAKNTVYLQMNSLKPEDTAVYYCAAPYQDRDLQVSYSTYEGGYWGQGTQVTVSS | low polyreactivity
QVQHVESGGGLVQAGGSLRLSCAASGITFVLNSMGWSRPAPGKERELVAAIDTSGADTYYADSVKGRFTISRDNAKNTVYLQMNSLKPEDTAVYYCAAETITDDSYEYDYWGQGTQVTVSS | low polyreactivity
QVQHVESGGGLVQAGGSLRLSCAASGITFVPNAMGWYRQAHGKERELVAAITSGDSTNYADSVKGRFTISRDNAKNTVYLQMNSLKPEDTAVYYCAADSWAQRPNQGRVSLHYYWGQGTLVTVSS | low polyreactivity
QVQHVESGGGLVQAGGSLRLSCAASGLIFPRYAMGLYRQAPGKERELVAAINWRGGITYYADSVKGRFTISRDNAKNTVYLQMNSLKPEDTAVYYCAAAVKHVAYHYNYWGQGTQVTVSS | high polyreactivity
QVQHVESGGGLVQAGGSLRLSCAASGLIFVRYAMGWYRQAPGKERELVATITWSGGTTYADSVKGRFTISRDNAKNTVYLQMNSLKPEDTAVYYCAVEWPAWTDSDYPVGGHAFGYWGQGTQVTVSS | low polyreactivity
QVQHVESGGGLVQAGGSLRLSCAASGLNLYSNAMGCYRQAPGNERELVAAISWIGASTYYADSVKGRFTISRDNAKNTVYLQMNSLKQEDTAVYYCATARYRGYPTYSYARDYCGQGTQVTVSS | high polyreactivity
QVQHVESGGGLVQAGGSLRLSCAASGNIFVAYAMGGYRQAPGKERELVAAITSGGRTYADSVKGRFTISRDNAKNTVYLQMNSLKPEDTAVYYCNADPYYVYLGYYDRYYSGYGYWGQGTQVTVSS | low polyreactivity
QVQHVESGGGLVQAGGSLRLSCAASGNSFRYYTMGWYRQAPGKEREFVAAISWSGGRTRYADSVKGRFTISRDNAMITVYLQMNSLKPEDTAVYYCAAYTPSYGGRDYWGQGTQVTVSS | low polyreactivity
QVQHVESGGGLVQAGGSLRLSCAASGPTYKRYAMGWYRQAPGKERELVAAIRQRGGSTYYADSVKGRFTISRDNAKNTVYLQMISLKPEDTAVYYWAKRYVSNSQYEYWGQGTQVTVSS | high polyreactivity
QVQHVESGGGLVQAGGSLRLSCAASGRIFGGNAMGWYRQAPGKERELVAAISIGGGSTNYADSVKGRFTISRDNAKNTFYLQMNSLKPEDTAVYYCAARTRYTSVGKLYSWGQGTQVTVSS | high polyreactivity
QVQHVESGGGLVQAGGSLRLSCAASGRIFHWYAMGWYRQAPGKERELVAAIRWTGGSTYYADSVKGRFTISRDNAKNTVYLEMNSLKPEDTAVYYCAAKGYTGIFYEMDYWGQGTQVTVSS | low polyreactivity
QVQHVESGGGLVQAGGSLRLSCAASGRIFRGYAMGWYRQAPGKERELVAVISYSGTRTYYADSVKGRFTISRDNAKNTVYLQMNSLKPEDTAVYYCNARANGFKDGYWGQGTQVTVSS | high polyreactivity
QVQHVESGGGLVQAGGSLRLSCAASGRIFVPYTMGWYRQAPGKERELVAAISRSGGSTYYADSVKGRFTISRDNAKNPVYLQMNSLKPEDTAVYYCAARATNVYSKMDYWGQGTQVTVSS | high polyreactivity
QVQHVESGGGLVQAGGSLRLSCAASGRIFYRNAMGWYRQAPGKERELVASITSAGRTYYADSVKGRFTISRDNAKNTVYLQMNSLKPEDTAVYYCAVRVAVLLNLYGYWGQGTQVTVSS | low polyreactivity
QVQHVESGGGLVQAGGSLRLSCAASGRTFEVFAMGWYRQAPRKERELVATITYSGGITYYADSVKGRFTISRDKAKNTVYLQMNSLKPEDTAVYYPIGVGGDYDYCGQGTQVTVSS | low polyreactivity

Sequence | polyreactivity (PSR sort gate)
QVQHVESGGGLVQAGGSLRLSCAASGRTFKYYAMGWYRQAPGKERELVAAISSRGGSTYYADSVKGRFTISRDNAKNTVYLQMNSLKPEDTAVYYCAKGTYLSTSTVANDYWGQGTQVTVSS | high polyreactivity
QVQHVESGGGLVQAGGSLRLSCAASGRTFQLYDMGWYRQPHGKDRELVAGITITGGSTYYADSVKGRFTISRDIAKNTVYIQMISLKPEDTAVYYCAARKARPPFPHPFDYYWGQGTQVTVSS | low polyreactivity
QVQHVESGGGLVQAGGSLRLSCAASGRTFSRYAMGWYRQAPGKERELVAAISSRGGSTYYADSVKGRFTISRDYAKNTVYLQMNSLKPEDTAVYYCNADSKVDQYGYDYWGQGTQVTVSS | high polyreactivity
QVQHVESGGGLVQAGGSLRLSCAASGRTFWTNALGWYRQAPGKEREFVGAISWRGASTFYADSVKGRFTISRDHAKNTVYLQMTSLKPEDTAVYDCAAQSRTRSFYGKFDSWGQGTQVTVSS | low polyreactivity
QVQHVESGGGLVQAGGSLRLSCAASGRTFYRYAMGWSRQAPGKERELVASINRGGSTNYADSVKGRFTISRDNAKNTVYLQMNSLKPEDTAVYYCNADGYQAASRVYRRPKRYYSWGQGTQVTVSS | low polyreactivity
QVQHVESGGGLVQAGGSLRLSCAASGRTSKKYVMGWYRQAPGKERELVATLNWSGGSTYYADSVKGRFTISRDNAKNTVYLQMNSLKPEDTAVYYCAARSEFYWGWEYITYDYWGQGTQVTVSS | low polyreactivity
QVQHVESGGGLVQAGGSLRLSCAASGRTSNIYAMGWYRQAPGKERELVAAIRTGGSTNYADSVKGRFTISRDNAKNTVYLQMNSLKPEDTAVYYCAATSRRSRPAEEYWGQGTQVTVSS | high polyreactivity
QVQHVESGGGLVQAGGSLRLSCAASGRTSYGNTMGWYRQAPGKERELVATISGGGSTNYADSVKGRFTISRDNAKNTVYLQMNSLKPDDTAVYYCAARRYPFPGYRYYYWGQGTQVTVSS | high polyreactivity
QVQHVESGGGLVQAGGSLRLSCAASGRTYRYNAMGWYRQAPGKETELVAAITGGGSTNYADSVKGRFTISRDNAKYTVYLQMNSLKPEDTAVYYCATGGFKYWWLYPYDYWGQGTQVTVSS | low polyreactivity
QVQHVESGGGLVQAGGSLRLSCAASGSIFRRYTMGWYRQAPGKERELVAAISRVGNTNYADSVKGRFTISRDNAKNTVYLQMNSLKPEDTAVYYCAARAIGYRYTPGLNYWGQGTQVTVSS | high polyreactivity
QVQHVESGGGLVQAGGSLRLSCAASGSIFVFYAMGWYRQAHGKEREFVASITSSGGSTYYADSVKGRFTISRDNAKNTVYLQMNSLKPEDTAVYYCAARKYRNPYYYRYYYWGQGTQVTVSS | high polyreactivity
QVQHVESGGGLVQAGGSLRLSCAASGSIIRGNCMGWYRQAPGKERELVAAISRSGGRTYYADSVKGRFTFSRDNAKNTVYLQMNSLKPEDTAVYYFAKDRSGSYYNFPEYDYWGQGTQVTVSS | high polyreactivity
QVQHVESGGGLVQAGGSLRLSCAASGSNVVSNAMGWYRHATGKEREFVATISSGGGTTYADSVKGRFTISRDNAKITVYLQMNSLKAEDTAVYYCAAGHFVGREWVKFDYWGQGTQVTVSS | low polyreactivity
QVQHVESGGGLVQAGGSLRLSCAASGSTFLVYAMGWYRQAPGKERELVAAISGAGSTTYADSVKGRFTISRDNAKNTVYLQMNSMKPEDTAVSYCNARTVAIWSERYYWGQGTQVTVSS | low polyreactivity
QVQHVESGGGLVQAGGSLRLSCAASGSTFPGYAMGWYRQAPGKERELVAAISKRGGSTRYADSVKGRFTISRDNAINTVYLQMNSLKPEDTAVYYCAASYSYSGSGGGYWGQGTQVTVSS | high polyreactivity
QVQHVESGGGLVQAGGSLRLSCAASGSTFRYYTMGWYRQAPGKERELVADITIGGSTYYADSVKGRFTISRDNAKNTVYLQMNSLKPEDTAVYYCAARSTGGRIFATGVAYDYWGQGTQVTVST | low polyreactivity
QVQHVESGGGLVQAGGSLRLSCAASGSTFSLYAMGWSRQAPGKERELVAAIRGSGGSPYYADSVKGRFTISRDNAKNTVYLQMNTQTPEDSAVYYCAKKRYHGSNYGYDYWGQGTQVTVSS | high polyreactivity
QVQHVESGGGLVQAGGSLRLSCAASGSTFSQYAMGWYRQAPGKERELVAAITRGGRTYYADSVKGRFTISRDNAKNTVYLQMNSLKPEDTAVYYCAARGGYRLRYIPYVRYDYWGQGTQVTVSS | high polyreactivity
QVQHVESGGGLVQAGGSLRLSCAASGSTFTAYVMGWYRQAPGKERELVAAISRSGGRTYYADSVKGRFTISRDNAKNTVYLQMNSLKPEDTAVYYCAARSGPLAYDYWGQGTQVTVSS | high polyreactivity
QVQHVESGGGLVQAGGSLRLSCAASGSTFVGNAMGWYRQAPGKERELVADITSGGSTNYADSVKGRFTISRDNAKNTVYLQMNSLKPEDTAVYYCAAVYLWSQRREFWGQGTQVTVSS | low polyreactivity
QVQHVESGGGLVQAGGSLRLSCAASGSTFWYAMGWYRQAPGKERELVAAITARGGRTYYADSVKGRFTISRDNAKNTVYLQMNSLKPEDTAVYYCARLSYAGGQWIIAKYDYWGQGTQVTVSS | high polyreactivity
